From patent US20060035242A1 come the findings set out here.

Test [1] deals with T1, mouse pathogenic prion protein PrP^Sc (RML, in infected Balb-c mouse brain homogenate) (mouse), P04925.
Test [2] deals with T1, mouse pathogenic prion protein PrP^Sc …. The experiment in a line: bead pull-down from PrPSc+ mouse brain homogenate; ELISA. For orientation: ELISA stands for enzyme-linked immunosorbent assay.

Like-named read-outs stand apart in the source and are kept apart here.

T1 sequence (P04925 23-230 limits assumed): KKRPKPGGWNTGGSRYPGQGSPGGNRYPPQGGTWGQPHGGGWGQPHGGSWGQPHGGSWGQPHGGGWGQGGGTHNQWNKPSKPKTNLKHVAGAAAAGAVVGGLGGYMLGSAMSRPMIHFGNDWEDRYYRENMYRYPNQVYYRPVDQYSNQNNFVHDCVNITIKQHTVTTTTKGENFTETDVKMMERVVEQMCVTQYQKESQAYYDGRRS

In test [1], GGGKKRPAPGG (modifications not checked) [peptide reagent of SEQ ID NO:107] showed an ELISA A405 nm of 0.578 A405 nm. Take GGGKKAPKPGG (modifications not checked) [peptide reagent of SEQ ID NO:106]: the ELISA A405 nm in test [1] amounted to 0.268 A405 nm. In turn, GGGKARPKPGG (modifications not checked) [peptide reagent of SEQ ID NO:105] displayed an ELISA A405 nm in test [1] of 0.256 A405 nm. Consider GGGAGAAAAGAVVGGLGG (modifications not checked) [peptide reagent of SEQ ID NO:56], for which, in test [2], the ELISA A405 nm was found to be 0.313 A405 nm. Still for that read-out and setting: as for GGGKKKKKKKK (modifications not checked) [peptide reagent of SEQ ID NO:85], the figure is 0.53 A405 nm; as for GGGKPSKPK (modifications not checked) [peptide reagent of SEQ ID NO:80], 0.225 A405 nm.

GGGKKRAKAGG (modifications not checked) [peptide reagent of SEQ ID NO:98] yielded an ELISA A405 nm in test [2] of 1.46 A405 nm.

In the case of GGGKKRPKPGGGKKRPKPGG (modifications not checked) [peptide reagent of SEQ ID NO:72 (tandem repeat)], in test [2], the ELISA A405 nm was determined as 0.522 A405 nm. Consider GGGNKPSKPK (modifications not checked) [peptide reagent of SEQ ID NO:79], for which, in test [2], the ELISA A405 nm was 0.24 A405 nm. On the same count and under the same terms, as for KKKAGAAAAGAVVGGLGG (modifications not checked) [peptide reagent of SEQ ID NO:65], the figure is 0.635 A405 nm; as for GGGGPKRKGPK (modifications not checked) [peptide reagent of SEQ ID NO:73], 1.06 A405 nm.
